Assay results from patent US20250042994A1 (HAINAN SIMCERE ZAIMING PHARMACEUTICAL, published 2025).
Residue numbers refer to the chain shown, from its start.

T1: Human CD19-his protein (human, UniProt P15391 20-291)
T1 construct: bought protein; also called recombinant human CD19-His; CD19 full-length protein; not shown: His tag
T1 sequence (looked up): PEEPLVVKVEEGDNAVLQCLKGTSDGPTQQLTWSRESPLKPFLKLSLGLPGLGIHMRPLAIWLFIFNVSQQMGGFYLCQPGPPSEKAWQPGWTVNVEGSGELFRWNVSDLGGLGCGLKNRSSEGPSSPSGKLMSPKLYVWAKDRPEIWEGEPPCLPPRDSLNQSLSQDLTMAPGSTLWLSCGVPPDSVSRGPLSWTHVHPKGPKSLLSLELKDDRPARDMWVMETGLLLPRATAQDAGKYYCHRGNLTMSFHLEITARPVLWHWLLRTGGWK

T2: human CD19 on CHO-K1-human CD19 cells (human, UniProt P15391 20-556)
T2 construct: whole, on cells; also called CHO-K1-human CD19-2C8
T2 sequence (looked up): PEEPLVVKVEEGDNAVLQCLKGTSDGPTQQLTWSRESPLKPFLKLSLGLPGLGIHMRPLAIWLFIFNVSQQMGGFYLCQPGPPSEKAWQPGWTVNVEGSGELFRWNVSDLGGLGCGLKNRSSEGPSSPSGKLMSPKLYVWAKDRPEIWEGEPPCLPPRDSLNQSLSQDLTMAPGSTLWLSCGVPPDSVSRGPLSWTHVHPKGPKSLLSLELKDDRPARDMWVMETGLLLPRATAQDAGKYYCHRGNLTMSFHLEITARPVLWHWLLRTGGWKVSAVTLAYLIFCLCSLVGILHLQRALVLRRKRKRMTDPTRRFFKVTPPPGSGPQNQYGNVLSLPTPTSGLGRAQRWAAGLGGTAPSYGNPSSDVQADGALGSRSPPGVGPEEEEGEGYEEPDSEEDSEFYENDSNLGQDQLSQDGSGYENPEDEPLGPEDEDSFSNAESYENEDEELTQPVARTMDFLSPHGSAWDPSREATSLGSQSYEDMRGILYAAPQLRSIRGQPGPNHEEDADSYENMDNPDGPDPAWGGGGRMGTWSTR

T3: human CD19 exon1-3-His tag protein (human, UniProt P15391 20-186, limits assumed)
T3 construct: membrane-distal part of the extracellular region, made in HEK293E cells; not shown: His tag
T3 sequence (looked up): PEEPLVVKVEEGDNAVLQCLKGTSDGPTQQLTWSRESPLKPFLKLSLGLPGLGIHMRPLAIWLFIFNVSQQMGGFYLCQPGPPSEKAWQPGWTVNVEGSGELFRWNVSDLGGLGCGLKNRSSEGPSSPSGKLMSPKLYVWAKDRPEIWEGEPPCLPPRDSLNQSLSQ

T4: human CD19 on Raji cells (human, UniProt P15391 20-556)
T4 construct: whole, on cells
T4 sequence (looked up): T2 sequence (looked up)

B1: F3.121.4-L2H3 (antibody, mouse IgG1, kappa)
heavy: EVQLVQSGAEVKKPGASVKVSCKASGYTFTNYWMHWVRQRPGQGLEWMGEIDPSDNYANYNQEFQGRVTITVDKSASTAYMELSSLRSEDTAVYYCARHDGYFGALDYWGQGTTVTVSSAKTTPPSVYPLAPGSAAQTNSMVTLGCLVKGYFPEPVTVTWNSGSLSSGVHTFPAVLQSDLYTLSSSVTVPSSTWPSETVTCNVAHPASSTKVDKKIVPRDCGCKPCICTVPEVSSVFIFPPKPKDVLTITLTPKVTCVVVDISKDDPEVQFSWFVDDVEVHTAQTQPREEQFNSTFRSVSELPIMHQDWLNGKEFKCRVNSAAFPAPIEKTISKTKGRPKAPQVYTIPPPKEQMAKDKVSLTCMITDFFPEDITVEWQWNGQPAENYKNTQPIMDTDGSYFVYSKLNVQKSNWEAGNTFTCSVLHEGLHNHHTEKSLSHSPGK
light: EIVLTQSPDFQSVTPKEKVTITCSASSSISSNYLHWYQQKPDQSPKLLIKRTSNLASGVPSRFSGSGSGTDFTLTINSLEAEDAATYYCQQASSIPRMFTFGQGTKLEIKRADAAPTVSIFPPSSEQLTSGGASVVCFLNNFYPKDINVKWKIDGSERQNGVLNSWTDQDSKDSTYSMSSTLTLTKDEYERHNSYTCEATHKTSTSPIVKSFNRNEC
notes: humanized antibody of F3.121.4, VL2+VH3, murine IgG1 constant regions
B2: F3.121.4-L3H2 (antibody, mouse IgG1, kappa, V domains shown)
VH: EVQLVQSGAEVKKPGASVKVSCKASGYTFTNYWMHWVRQAPGQGLEWMGEIDPSDNYANYNQEFQGRVTITVDKSASTAYMELSSLRSEDTAVYYCARHDGYFGALDYWGQGTTVTVSS
VL: EIVLTQSPDFQSVTPKEKVTITCSASSSISSNYLHWYQQKPDQSPKFLIYRTSNLASGVPSRFSGSGSGTDFTLTINSLEAEDAATYYCQQASSIPRMFTFGQGTKLEIKR
notes: humanized antibody of F3.121.4, VL3+VH2, murine IgG1 constant regions
B3: F3.121.4-L2H4 (antibody, mouse IgG1, kappa)
heavy: B1 heavy with V5Q
light: B1 light
notes: humanized antibody of F3.121.4, VL2+VH4, murine IgG1 constant regions
B4: F3.121.4-L3H1 (antibody, mouse IgG1, kappa, V domains shown)
VH: B2 VH with G44R
VL: B2 VL
notes: humanized antibody of F3.121.4, VL3+VH1, murine IgG1 constant regions

Molecular target: T1, Human CD19-his protein
Assay: SPR Biacore, method of example 7.1, human CD19-His
Method: A sample buffer and a running buffer were HBS-EP+ (10 mM HEPES, 150 mM NaCl, 3 mM EDTA and 0.05% surfactant P20) (GE Healthcare; BR-1006-69). The flow-through cell was set to 25° C. The sample block was set to 16° C. Both were pretreated with the running buffer. In each cycle, an antibody to be detected was first captured with a Protein A chip, and then a single concentration of CD19 antigen protein was injected. The binding and dissociation processes of the antibody and the antigen protein were recorded, and finally Glycine pH 1.5 (GE Healthcare; BR-1003-54) was used to complete chip regeneration. The binding was measured by injecting different concentrations of recombinant human CD19-His proteins in a solution for 240 s with a flow rate of 30 μl/min. The concentration started from 200 nM (see the detailed results for the actual concentration in the test) and was diluted at 1:1, making a total of 5 concentrations. The dissociation phase was monitored for up to 600 s and was triggered by switching from sample solution to running buffer. The surface was regenerated by washing with a 10 mM glycine solution (pH 1.5) for 30 s at a flow rate of 30 μl/min. Bulk refractive index difference was corrected by subtracting the response obtained from the goat anti-human Fc surface. Blank injection was also subtracted (=double reference). For calculation of apparent KD and other kinetic parameters, Langmuir 1:1 model was used.
SPR (biacore) detection and data analysis were performed according to the method in example 7.1.

Binder	Kd	koff	kon
B1	1380 pM	0.000188 s⁻¹	137000 M⁻¹ s⁻¹
B2	0.0498 pM	5.65e-09 s⁻¹	113000 M⁻¹ s⁻¹
B3	1530 pM	0.000186 s⁻¹	122000 M⁻¹ s⁻¹
B4	244 pM	3.18e-05 s⁻¹	130000 M⁻¹ s⁻¹

Molecular target: T2, human CD19 on CHO-K1-human CD19 cells
Assay: FACS on CHO-K1-human CD19 cells
Method: (§1) After the digestion was terminated, the cells were washed 2 times with a PBS buffer; and for suspension cell Raji, the supernatant of the medium was discarded by directly centrifugation, and the cell pellet was washed 2 times with PBS. After counting the cells in the previous step, the cell pellet was resuspended with [PBS+2% (w/w) BSA] blocking solution to 2×10⁶ cells/ml, and added to a 96-well FACS reaction plate at 50 μl/well, and then the sample to be tested was added at 50 μl/well, and incubated on ice for 2 h. The obtained mixture was centrifuged and washed 3 times with a PBS buffer. […] The obtained mixture was centrifuged and washed 5 times with a PBS buffer, and FACS (FACS Canto™, purchased from BD Company) was used for detection and result analysis. Data analysis was performed by software (FlowJo) to obtain the mean fluorescence intensity (MFI) of the cells. And then software (GraphPad Prism8) was used for analysis, data fitting, and EC50 value calculation. […] The same method was used to detect the binding of the chimeric antibodies to endogenous CD19-negative cells, MoLT4 cells (purchased from ATCC, CRL-1582), and CHO-K1 cells.

Binder	EC50	Maximum mean fluorescence intensity
B1	1170 pM	52200 MFI
B2	1080 pM	52100 MFI
B3	1130 pM	52000 MFI
B4	1130 pM	53500 MFI

Molecular target: T3, human CD19 exon1-3-His tag protein
Assay: ELISA, coated human CD19 exon 1-3-His

Binder	OD450 at 0.0001 nM	OD450 at 0.001 nM	OD450 at 0.01 nM	OD450 at 0.10 nM	OD450 at 1.00 nM	OD450 at 10 nM	OD450 at 100 nM
B1	0.05 OD450	0.05 OD450	0.05 OD450	0.05 OD450	0.05 OD450	0.05 OD450	0.08 OD450
B2	0.05 OD450	0.05 OD450	0.05 OD450	0.05 OD450	0.05 OD450	0.05 OD450	0.12 OD450
B3	0.05 OD450	0.05 OD450	0.05 OD450	0.05 OD450	0.04 OD450	0.05 OD450	0.08 OD450
B4	0.05 OD450	0.05 OD450	0.05 OD450	0.05 OD450	0.05 OD450	0.05 OD450	0.09 OD450

Molecular target: T4, human CD19 on Raji cells
Assay: FACS on Raji cells
Method: as §1

Binder	EC50	Maximum mean fluorescence intensity
B1	450 pM	29600 MFI
B2	420 pM	32200 MFI
B3	370 pM	29200 MFI
B4	380 pM	32000 MFI

Molecular target: T1, Human CD19-his protein
Assay: ELISA on coated human CD19-His

Binder	EC50 (read off the curve)
B1	~50 pM
B2	~50 pM
B3	~50 pM
B4	~50 pM

Molecular target: T1, Human CD19-his protein
Assay: ELISA, coated human CD19-His
Method: Human CD19-his protein (purchased from ACROBiosystems, catalog number: CD9-H52H2) was diluted with PBS to a final concentration of 4 μg/mL, and then added to a 96-well ELISA plate at 100 μl/well. The plate was sealed with a plastic film and incubated overnight at 4° C., the plate was washed 2 times with PBS the next day, and then a blocking solution [PBS+2% (w/w) BSA] was added for blocking at room temperature for 2 h. The blocking solution was poured off, and 100 nM gradiently diluted CD19 chimeric antibody or control antibody was added at 50 μl/well. After incubation at 37° C. for 2 h, the plate was washed 3 times with PBS. […] TMB substrate was added at 50 μl/well, and incubated at room temperature for 10 min, and then a stop solution (1.0 N HCl) was added at 50 μl/well. The OD450 nm values were read by an ELISA microplate reader (Multimode Plate Reader, EnSight, purchased from Perkin Elmer).

Binder	OD450 at 0.0001 nM	OD450 at 0.001 nM	OD450 at 0.01 nM	OD450 at 0.10 nM	OD450 at 1.00 nM	OD450 at 10 nM	OD450 at 100 nM
B1	0.1 OD450	0.14 OD450	0.39 OD450	1.55 OD450	2.47 OD450	2.33 OD450	2.32 OD450
B2	0.1 OD450	0.14 OD450	0.42 OD450	1.6 OD450	2.36 OD450	2.3 OD450	2.28 OD450
B3	0.1 OD450	0.14 OD450	0.39 OD450	1.53 OD450	2.36 OD450	2.27 OD450	2.34 OD450
B4	0.1 OD450	0.14 OD450	0.39 OD450	1.62 OD450	2.42 OD450	2.37 OD450	2.17 OD450
